Test results taken from US9981005.

Target: Skp1-FBXW7 complex (human FBXW7 residues 263-707 with truncated Skp1) (human) (UniProt P63208)
Assay: isothermal titration calorimetry, Skp1-FBXW7, 25 °C

Sequence of Skp1-FBXW7 complex (human FBXW7 residues 263-707 with truncated Skp1) (human) (chain, as listed by the source limits assumed, chain 1 of 2): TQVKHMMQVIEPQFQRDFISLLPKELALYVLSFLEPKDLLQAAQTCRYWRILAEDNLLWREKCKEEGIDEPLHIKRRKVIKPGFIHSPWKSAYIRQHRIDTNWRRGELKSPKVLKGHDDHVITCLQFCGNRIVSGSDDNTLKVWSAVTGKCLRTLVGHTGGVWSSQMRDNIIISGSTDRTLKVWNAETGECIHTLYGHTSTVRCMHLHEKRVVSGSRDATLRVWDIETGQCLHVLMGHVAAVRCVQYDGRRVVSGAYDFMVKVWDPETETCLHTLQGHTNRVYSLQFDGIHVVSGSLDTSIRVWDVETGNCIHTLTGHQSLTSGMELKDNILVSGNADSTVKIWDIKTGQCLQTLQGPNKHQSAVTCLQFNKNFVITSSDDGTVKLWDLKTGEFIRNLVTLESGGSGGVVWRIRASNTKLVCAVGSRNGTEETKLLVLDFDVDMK
Sequence of Skp1-FBXW7 complex (human FBXW7 residues 263-707 with truncated Skp1) (human) (P63208 whole entry, chain 2 of 2, the tested form may be a part): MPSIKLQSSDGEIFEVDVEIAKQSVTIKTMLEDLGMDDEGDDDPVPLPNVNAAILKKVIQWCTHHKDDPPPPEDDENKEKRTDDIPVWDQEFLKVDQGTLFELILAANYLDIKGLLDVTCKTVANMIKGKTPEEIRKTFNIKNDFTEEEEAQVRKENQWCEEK

- Kd: 1 µM
Substance: doubly-phosphorylated test peptide VPPpTPPGpSH
